Drawing on PMC8521305, this text covers stoichiometry N (helices per nanodisc) for one substance.

The target in this test is glycophorin A (GlyA) TMH. The test can be described thus: SEC. A general note: In gel filtration, larger molecules generally elute earlier.

In turn, “glycophorin A (GlyA) TMH (domain or fragment)” yielded a stoichiometry N (helices per nanodisc) of 2.
